US20210301026A1 (ULTRAHUMAN TWELVE, published 2021)

T1: monomeric cynomolgus monkey CSF1R ectodomain protein (cynomolgus monkey, UniProt P07333 20-517 (human entry))
T1 construct: also called monomeric cyno CSF1R; Cyno CSF1R
T1 chain: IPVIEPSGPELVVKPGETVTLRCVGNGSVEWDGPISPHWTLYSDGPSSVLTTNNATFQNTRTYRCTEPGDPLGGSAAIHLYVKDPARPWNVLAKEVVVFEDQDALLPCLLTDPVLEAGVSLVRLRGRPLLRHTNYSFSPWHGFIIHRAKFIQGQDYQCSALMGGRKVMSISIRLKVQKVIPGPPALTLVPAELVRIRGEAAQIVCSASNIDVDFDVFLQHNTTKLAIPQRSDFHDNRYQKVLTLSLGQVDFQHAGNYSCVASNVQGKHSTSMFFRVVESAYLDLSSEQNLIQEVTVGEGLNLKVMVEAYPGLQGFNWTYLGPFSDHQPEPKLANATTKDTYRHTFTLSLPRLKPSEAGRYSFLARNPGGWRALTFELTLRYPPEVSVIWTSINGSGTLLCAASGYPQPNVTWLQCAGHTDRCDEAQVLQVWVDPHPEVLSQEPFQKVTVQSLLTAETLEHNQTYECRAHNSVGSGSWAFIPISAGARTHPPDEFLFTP

B1: MH10 (antibody, human IgG4, V domains shown)
VH: QVQLVQSGAEVKKPGSSVKVSCKASGYTFSSNYMIWVRQAPGQGLEWMGDINPYNGGANYAQKFQGRVTITADESTSTAYMELSSLRSEDTAVYYCAREGPYFSNLYVMDYWGQGTLVTVSS
VL: EIVLTQSPATLSLSPGERATLSCRASQSVSYEGENYLNWYQQKPGQAPRSAIYAASNRATGIPARFSGSGSGTDFTLTISSPEPEDFAVYYCQLSNEDLLTFGGGTKVEIK
notes: Deimmunized MH5 derivative, human IgG4(S228P)/Ckappa IgG
B2: MH32 (antibody, human IgG4, V domains shown)
VH: QVQLVQSGAEVKKPGSSVKVSCKASGYTFSSAYMIWVRQAPGQGLEWMGDINPYNGGANYAQKFQGRVTITADESTSTAYMELSSLRSEDTAVYYCAREGPYFSNLYVMDYWGRGTLVTVSS
VL: EIVLTQSPATLSLSPGERATLSCRASQSVSYEGENYLNWYQQKPGQAPRSLIYAASDRATGIPARFSGSGSGTDFTLTISSPEPEDFAVYYCQLSNEDLLTFGGGTKVEIK
notes: Deimmunized MH5 derivative, human IgG4(S228P)/Ckappa IgG; also called MN32
B3: MH24 (antibody, human IgG4, V domains shown)
VH: QVQLVQSGAEVKKPGSSVKVSCKASGYTFSSHYMIWVRQAPGQGLEWMGDINPYNGGANYAQKFQGRVTITADESTSTAYMELSSLRSEDTAVYYCAREGPYFSNLYVMDYWGQGTLVTVSS
VL: EIVLTQSPATLSLSPGERATLSCRASQSVSYEGENYLNWYQQKPGQAPRSLIYAASDRATGIPARFSGSGSGTDFTLTISSPEPEDFAVYYCQLSNEDLLTFGGGTKVEIK
notes: as for B1
B4: MH12 (antibody, human IgG4, V domains shown)
VH: QVQLVQSGAEVKKPGSSVKVSCKASGYTFSSNYMIWVRQAPGQGLEWMGDINPYNGGANYAQKFQGRVTITADESTSTAYMELSSLRSEDTAVYYCAREGPYFSNLYVMDYWGQGTLVTVSS
VL: EIVLTQSPATLSLSPGERATLSCRASQSVSYEGENYLNWYQQKPGQAPRSLIYAASDRATGIPARFSGSGSGTDFTLTISSPEPEDFAVYYCQLSNEDLLTFGGGTKVEIK
notes: Deimmunized MH5 derivative, human IgG4(S228P)/Ckappa IgG; also called mAb-4
B5: MH11 (antibody, human IgG4, V domains shown)
VH: QVQLVQSGAEVKKPGSSVKVSCKASGYTFSSNYMIWVRQAPGQGLEWMGDINPYNGGANYAQKFQGRVTITADESTSTAYMELSSLRSEDTAVYYCAREGPYFSNLYVMDYWGQGTLVTVSS
VL: EIVLTQSPATLSLSPGERATLSCRASQSVSYEGENYLNWYQQKPGQAPRAAIYAASNRATGIPARFSGSGSGTDFTLTISSPEPEDFAVYYCQLSNEDLLTFGGGTKVEIK
notes: as for B1
B6: MH37 (antibody, human IgG4, V domains shown)
VH: QVQLVQSGAEVKKPGSSVKVSCKASGYTFSSSYMIWVRQAPGQGLEWMGDINPYNGGANYAQKFQGRVTITADESTSTAYMELSSLRSEDTAVYYCAREGPYFSNLYVMDYWGRGTLVTVSS
VL: EIVLTQSPATLSLSPGERATLSCRASQSVSYEGENYLNWYQQKPGQAPRLLIYAASNRATGIPARFSGSGSGTDFTLTISSPEPEDFAVYYCQLSNEDLLTFGGGTKVEIK
notes: as for B1

What was measured:
[1] = molecular target: T2, monomeric human CSF1R ectodomain protein (human, UniProt P07333 20-517); experiment: SPR Biacore, IgG captured, monomeric CSF1R analyte
T2 construct: also called biotinylated monomeric human CSF1R
Description: (§1) Affinity (KD) of purified IgGs was determined via SPR with antigen in-solution on a Biacore 3000 (GE). A mouse anti-human antibody (CH1 specific) was immobilized on a CM5 Sensor Chip to a level of 2000 RU in acetate buffer at pH 4.5 using amine coupling following the Wizard instructions for two channels. One channel was used for background signal correction. The standard running buffer HBS-EP pH 7.4 was used. Regeneration was performed with a single injection of 10 μl of 10 mM Glycine at pH 1.5 at 20 μl/minute. IgG samples were injected for 2 minutes at 50 nM at 30 μl/min followed by and off-rate of 60 seconds. The monomeric ectodomain protein (human CSF1R or cynomolgus monkey CSF1R) was injected in two fold serial dilutions from 100 nM down to 3.1 nM, for 2 minutes at 30 μl/min followed by an off-rate of 300 seconds. The obtained sensorgrams were analysed using the Biacore 3000 evaluation (BIAevaluation) software. The KD was calculated by simultaneous fitting of the association and dissociation phases to a 1:1 Langmuir binding model.

[2] = molecular target: T1, monomeric cynomolgus monkey CSF1R …; experiment: SPR Biacore, IgG captured, monomeric CSF1R analyte
Description: as §1

human insulin = molecular target: T3, human insulin (human, UniProt P01308 25-54; P01308 90-110, limits assumed); experiment: ELISA on human insulin (development risk, polyreactivity), binding score
T3 construct: Coated antigen of the polyreactivity ('PK-risk indicator') ELISA
T3 sequence (P01308 25-54 limits assumed, chain 1 of 2): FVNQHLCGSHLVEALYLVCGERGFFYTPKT
T3 sequence (P01308 90-110 limits assumed, chain 2 of 2): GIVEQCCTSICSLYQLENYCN

Row | Binder | Kd [1] [nM] | koff [1] [s⁻¹] | kon [1] [M⁻¹ s⁻¹] | Kd [2] [nM] | koff [2] [s⁻¹] | kon [2] [M⁻¹ s⁻¹] | fold of the affinity of hu0301 [1] [fold] | fold of the affinity of hu0301 [2] [fold] | binding result (human insulin)
1 | B1 | 0.624 | 0.00088 | 1.41e+06 | 1.07 | 0.000754 | 705000 | – | – | –
2 | B2 | 0.62 | 0.00127 | 2.04e+06 | 0.979 | 0.00103 | 1.05e+06 | – | – | –
3 | B3 | 0.397 | 0.000976 | 2.46e+06 | 0.777 | 0.000833 | 1.07e+06 | ≤ 2 | ≤ 2 | –
4 | B4 | 0.342 | 0.000832 | 2.43e+06 | 0.557 | 0.000726 | 1.3e+06 | ≤ 2 | ≤ 2 | no binding
5 | B5 | 0.776 | 0.00119 | 1.53e+06 | 1.29 | 0.00103 | 802000 | – | – | –
6 | B6 | – | – | – | – | – | – | – | – | no binding
